Earlier results in patent publication US5814460A, “Method for generating and screening useful peptides” (Diatide, Inc., priority 1995, dated 1998).
Like-named read-outs stand apart in the source and are kept apart here.

Experiments:
human fibrinogen = human fibrinogen (Homo sapiens, UniProt P02679); settings: read-out: affinities for human fibrinogen
fibrin polymerization = fibrin polymerization (Homo sapiens, UniProt P02679); settings: literature statement
[1] = molecular target: fibrinogen receptor (GpIIb IIIa) (Homo sapiens, UniProt P05106+P08514)
Pepsin (hum.) = Pepsin (hum.) (Homo sapiens, UniProt P0DJD7); settings: Table 6
Sequence of Pepsin (hum.) (P0DJD7 63-388): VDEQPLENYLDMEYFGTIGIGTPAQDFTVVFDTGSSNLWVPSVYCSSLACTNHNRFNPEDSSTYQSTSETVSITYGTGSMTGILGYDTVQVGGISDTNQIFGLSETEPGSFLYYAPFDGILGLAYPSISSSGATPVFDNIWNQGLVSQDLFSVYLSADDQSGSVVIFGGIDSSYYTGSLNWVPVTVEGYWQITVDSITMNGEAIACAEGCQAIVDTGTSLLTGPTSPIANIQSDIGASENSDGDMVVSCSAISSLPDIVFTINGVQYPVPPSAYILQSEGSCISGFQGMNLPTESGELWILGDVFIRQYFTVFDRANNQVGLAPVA

Calmodulin = Calmodulin (Homo sapiens, UniProt P0DP23); settings: Table 6
[2] = molecular target: Urokinase Receptor (hum.) (Homo sapiens, UniProt Q03405); settings: Table 6
Sequence of Urokinase Receptor (hum.) (Q03405 23-335): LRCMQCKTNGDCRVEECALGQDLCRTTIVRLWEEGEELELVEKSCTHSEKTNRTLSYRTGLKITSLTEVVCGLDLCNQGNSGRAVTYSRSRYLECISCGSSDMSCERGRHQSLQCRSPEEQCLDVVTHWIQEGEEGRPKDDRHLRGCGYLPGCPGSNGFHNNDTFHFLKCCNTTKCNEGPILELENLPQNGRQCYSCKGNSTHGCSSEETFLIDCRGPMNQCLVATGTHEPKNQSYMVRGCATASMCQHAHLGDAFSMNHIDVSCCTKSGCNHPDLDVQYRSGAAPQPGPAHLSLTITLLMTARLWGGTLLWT

streptavidin = molecular target: T1, streptavidin (Streptomyces avidinii, UniProt P22629); settings: read-out: Kd of streptavidin complex
T1 construct: purchased Sigma Chemical Company
T1 sequence (P22629 25-183): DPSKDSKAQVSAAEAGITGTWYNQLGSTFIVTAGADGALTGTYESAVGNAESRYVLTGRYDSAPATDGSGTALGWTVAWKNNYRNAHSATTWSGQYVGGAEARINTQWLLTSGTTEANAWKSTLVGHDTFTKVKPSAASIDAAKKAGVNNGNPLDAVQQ

CD4 = CD4 (Homo sapiens, UniProt P01730); settings: Table 6
[3] = molecular target: Fibronectin (rat) (human); settings: Table 6
Sequence of Fibronectin (rat) (human) (P04937 1540-1633 limits assumed): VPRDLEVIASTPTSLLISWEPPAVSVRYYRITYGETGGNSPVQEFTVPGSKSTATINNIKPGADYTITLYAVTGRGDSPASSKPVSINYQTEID

Angiotensin II Receptor = settings: Table 6
Porcine PLA2 = Porcine PLA2 (Sus scrofa, UniProt P00592); settings: Table 6
Sequence of Porcine PLA2 (P00592 23-146): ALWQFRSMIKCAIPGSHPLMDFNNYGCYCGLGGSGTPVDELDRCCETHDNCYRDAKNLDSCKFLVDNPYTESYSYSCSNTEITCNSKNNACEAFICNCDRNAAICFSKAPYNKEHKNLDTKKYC

Gastricsin (hum.) = molecular target: T2, Gastricsin (hum.) (Homo sapiens, UniProt P20142); settings: Table 6
T2 sequence (P20142 60-388): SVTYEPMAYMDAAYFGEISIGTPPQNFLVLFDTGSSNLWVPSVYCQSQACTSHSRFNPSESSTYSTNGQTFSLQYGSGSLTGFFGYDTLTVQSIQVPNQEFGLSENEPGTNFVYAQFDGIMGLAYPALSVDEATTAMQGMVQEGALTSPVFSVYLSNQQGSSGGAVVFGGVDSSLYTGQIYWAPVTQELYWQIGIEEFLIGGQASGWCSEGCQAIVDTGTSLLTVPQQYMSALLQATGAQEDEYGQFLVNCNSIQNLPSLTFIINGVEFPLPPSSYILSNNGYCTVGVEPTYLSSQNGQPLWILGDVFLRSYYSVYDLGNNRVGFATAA

[4] = Table 6, target GpIIb IIa, read-out: Kd

Sequence of fibrin polymerization (P02671 20-629 partner limits assumed): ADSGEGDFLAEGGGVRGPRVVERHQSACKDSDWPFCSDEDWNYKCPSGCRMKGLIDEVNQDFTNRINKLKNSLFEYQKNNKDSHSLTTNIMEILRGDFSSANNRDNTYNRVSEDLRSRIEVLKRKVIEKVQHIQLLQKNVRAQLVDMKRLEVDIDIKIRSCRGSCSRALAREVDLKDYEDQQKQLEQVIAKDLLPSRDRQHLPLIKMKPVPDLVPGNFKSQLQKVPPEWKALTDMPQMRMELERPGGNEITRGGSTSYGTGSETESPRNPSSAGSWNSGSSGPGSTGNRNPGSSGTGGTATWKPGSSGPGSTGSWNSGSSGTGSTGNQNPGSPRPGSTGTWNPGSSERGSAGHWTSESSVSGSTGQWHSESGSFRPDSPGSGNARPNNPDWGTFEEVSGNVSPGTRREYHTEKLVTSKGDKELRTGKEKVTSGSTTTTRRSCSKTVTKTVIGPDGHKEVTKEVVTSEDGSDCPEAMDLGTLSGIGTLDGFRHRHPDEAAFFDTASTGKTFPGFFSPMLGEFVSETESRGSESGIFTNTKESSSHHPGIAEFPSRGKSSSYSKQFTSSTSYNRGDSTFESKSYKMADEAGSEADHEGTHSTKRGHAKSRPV
Sequence of fibrin polymerization (P02675 31-491 partner): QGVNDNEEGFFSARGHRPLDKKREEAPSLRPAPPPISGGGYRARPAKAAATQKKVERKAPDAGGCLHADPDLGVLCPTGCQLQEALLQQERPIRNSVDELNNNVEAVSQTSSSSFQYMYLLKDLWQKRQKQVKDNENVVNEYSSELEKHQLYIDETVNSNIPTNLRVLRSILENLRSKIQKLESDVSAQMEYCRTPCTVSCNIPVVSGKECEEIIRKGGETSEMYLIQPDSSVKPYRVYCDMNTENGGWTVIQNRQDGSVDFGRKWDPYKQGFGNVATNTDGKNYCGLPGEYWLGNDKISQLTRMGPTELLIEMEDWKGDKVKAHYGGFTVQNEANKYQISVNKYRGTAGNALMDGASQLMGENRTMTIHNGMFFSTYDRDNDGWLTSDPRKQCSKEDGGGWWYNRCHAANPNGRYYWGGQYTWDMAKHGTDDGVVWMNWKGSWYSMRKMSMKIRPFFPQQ
Sequence of fibrin polymerization (P02679 27-433 limits assumed): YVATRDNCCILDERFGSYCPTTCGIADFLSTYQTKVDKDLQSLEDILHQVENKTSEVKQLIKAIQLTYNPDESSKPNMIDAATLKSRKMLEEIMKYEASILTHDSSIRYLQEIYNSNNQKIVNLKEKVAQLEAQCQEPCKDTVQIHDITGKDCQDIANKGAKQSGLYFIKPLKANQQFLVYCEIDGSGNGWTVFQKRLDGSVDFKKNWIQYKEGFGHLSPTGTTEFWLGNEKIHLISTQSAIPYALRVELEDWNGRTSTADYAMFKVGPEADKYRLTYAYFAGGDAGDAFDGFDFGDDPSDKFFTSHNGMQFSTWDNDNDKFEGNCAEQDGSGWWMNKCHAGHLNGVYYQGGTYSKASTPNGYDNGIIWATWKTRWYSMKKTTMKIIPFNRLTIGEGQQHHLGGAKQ
Sequence of human fibrinogen (P02671 20-629 partner limits assumed): as the sequence (P02671 20-629 partner limits assumed) above
Sequence of human fibrinogen (P02675 31-491 partner): as the sequence (P02675 31-491 partner) above
Sequence of human fibrinogen (P02679 27-433 limits assumed): as the sequence (P02679 27-433 limits assumed) above

For “GPRV: synthetic peptide beginning with GPR that binds fibrinogen”, the Kd (human fibrinogen) is given as 100 µM and the “inhibition of fibrin polymerization” value (fibrin polymerization) is given as “inhibit fibrin polymerization”.
In the case of “RGDY: RGD containing peptide binding GpIIb IIIa”, the Kd [1, 4] is given as 1 µM.
For RIFLKRMPSIR, the Kd (Pepsin (hum.)) is given as 1 µM.
For VAITVLVK, the Kd (Calmodulin) is given as 1 µM.
In the case of “TCVXNKYFSNIHW: lead peptide (urokinase) for urokinase receptor”, the Kd [2] is listed as 1 µM.
In the case of `N=C1N[C@H]2[C@H](CS[C@H]2CCCCC(=O)O)N1` [imminobiotin], the Kd (streptavidin) is given as ~0.01 µM.
In the case of TNYT: lead peptide for CD4, the Kd (CD4) is given as 1 µM.
For Arg-Gly-Asp-Trp (RGDW), the Kd [1, 4] is given as 1 µM and the Kd ([1]; example of a lead peptide, read-out: affinity (Kd) for fibrinogen receptor) is given as 5 µM.
For “WTVPTA: lead peptide, antisense of GAVSTA RGD sequence, for fibronectin”, the Kd [3] is given as 1 µM.
For EGVYVHPV, the Kd (Angiotensin II Receptor) is listed as 0.1 µM.
For “GRGDSP: lead peptide (Fb) for GpIIb IIIa”, the Kd [1, 4] is listed as 1 µM.
For GPRP, the “inhibition of fibrin polymerization” value (fibrin polymerization) is given as “inhibit fibrin polymerization”.
In the case of MLFILIKRSRHF, the Kd (Porcine PLA2) is listed as 10 µM.
In the case of TTFKRIFLKRMPS, the Kd (Gastricsin (hum.)) is listed as 1 µM.
In the case of Gly-Pro-Arg [GPR], the Kd (human fibrinogen) is listed as 50 µM and the “inhibition of fibrin polymerization” value (fibrin polymerization) is listed as “inhibit fibrin polymerization”.
